Assays:
[1] = system: Pancreatin from porcine pancreas; test: In vitro digestion of lunasin with pancreatin, with or without protease inhibitors; type: in vitro ADME; settings: inhibitor 18,000 ng, lunasin 600 ng, pancreatin 600 ng, 1 h at 37°C; also after heat denaturation of the inhibitor
Experimental: Figure 2 Soy-derived BBI and KTI protect synthetic lunasin from in vitro digestion. The upper, lighter bands are Coomassie Blue protein stains and the lower, darker bands are Western blots. (M) Markers, (1) Lunasin (600 ng) + pancreatin (600 ng) incubated for 0 h at 37°C, (2) Lunasin (600 ng) + pancreatin (600 ng) incubated for 1 h at 37°C, (3) Lunasin (600 ng) + BBI (18,000 ng, unboiled) + pancreatin (600 ng) incubated for 1 h at 37°C, (4). Lunasin (600 ng) + KTI (18,000 ng, unboiled) + pancreatin (600 ng) incubated for 1 h at 37°C, (5) Lunasin (600 ng) + BBI (18,000 ng, boiled) + pancreatin (600 ng) incubated for 1 h at 37°C, (6) Lunasin (600 ng)+KTI (18,000 ng, boiled) + pancreatin (600 ng) incubated for 1 h at 37°C, (7) BBI (unboiled), (8) KTI (unboiled).
In vitro digestion of lunasin was carried out following the method published in the United States Pharmacopeia. Synthetic lunasin (American Peptide Company, Inc. Sunnyvale, CA, USA) (5 µg) was incubated with the protease inhibitors BBI or KTI (Sigma, St. Louis, MO, USA) for 30 min at 25°C. Pancreatin from porcine pancreas (Sigma) was added (enzyme∶protein ratio of 1∶10) and solution was incubated at 37°C for 1 h. Tris-tricine sample buffer was added at the end of the reaction and immediately stopped by placing the tubes in a boiling water bath for 5 min. The digests were analyzed by SDS-PAGE and Western-Blot following the protocol previously described.

[2] = system: MDA-MB-231 tumor xenografts; test: Breast cancer prevention in MDA-MB-231 xenograft mouse model; type: in vivo, athymic NCr-nu/nu mice
Experimental: Human MDA-MB-231 breast cancer cells were obtained from ATCC and grown in Leibovitz's L-15 Medium supplemented with 10% FBS, 100 unit/ml penicillin, and 100 µg/ml streptomycin (Invitrogen), in a humidified atmosphere at 37°C.
Mice protocol was approved by ACUC (University of California, Berkeley, CA, USA). Thirty-two six weeks-old athymic NCr-nu/nu mice (National Cancer Institute, Frederick, MD, USA) were acclimatized for 1 week and randomly divided into four groups (n = 8): control group (receiving PBS), BBI-group (receiving BBI at 20 mg/kg body weight), and two lunasin-groups (receiving synthetic lunasin [Chengdu KaiJie Bio-Pharmaceutical Co., Chengdu, P.R. China] at 20 mg/kg body weight and 4 mg/kg body weight). After two months of i.p. treatment three times a week, mice were injected subcutaneously in the right flank with 1×10^7 MDA-MB-231 cells suspended in 0.1 ml of Matrigel Basement Membrane Matrix (Becton Dickinson, Bedford, MA, USA). Tumor growth was monitored by palpation, and the onset when tumors were detectable was noted. Tumor size was measured with calipers, and tumor volume was calculated assuming the shape as ellipsoid. Tumor incidence in percentage was calculated as the number of tumor-bearing mice divided by the total number of mice in each group, whereas tumor generation was calculated as the total number of tumors divided by total number of mice in each group. The volume of the tumor was determined using the following formula: tumor volume = length × width^2 ×0.523 [41].
At the end of the experiment, animals were sacrificed, and tumors were dissected and weighed. Individual tumors were split for fixation in the Shando Glyo-Fixx™ (Thermo Scientific, Pittsburgh, PA, USA) for histological examination. The paraffin-embedded sections were stained with hematoxylin and eosin (H&E).

[3] = system: Ki-67 expression in MDA-MB-231 tumors; test: Immunohistochemical staining of xenograft tumor sections for Ki-67 labeling index; type: in vivo, athymic NCr-nu/nu mice; settings: 20 mg/kg body weight i.p.; tumors collected 7 weeks after cells injection
Experimental: Sections were evaluated for tumor cell cytology, growth pattern, necrosis and apoptosis. The 5 µm sections were deparaffinized and rehydrated and antigens were retrieved using citrate buffer (pH 6.0) before endogenous peroxidase activity was blocked. Proliferation was shown using an antibody against Ki-67 (MIB-1; DakoCytomation, Glostrup, Denmark, dilution 1∶75). Antigen expression was expressed using streptavidin conjugated to horseradish peroxidase and visualized by diaminobenzidine chromogen reagent (DakoCytomation). All immunohistochemistry slides were examined by light microscopy (Axiophot 381, Zeiss, Germany). Ki-67 labeling index was calculated as percentage of positive cells over total number of cells counted in microscope at 400× magnification.

MDA-MB-231 tumors = test: In situ TUNEL assay for apoptosis in xenograft tumor sections; type: in vivo, athymic NCr-nu/nu mice; settings: lunasin 20 and 4 mg/kg (P = 0.0088, 0.0141 vs control), BBI 20 mg/kg i.p.
Experimental: In situ terminal deoxynucleotidyl transferase-mediated dUTP nick end labeling (TUNEL) assay was performed using ApopTag Detection Kit (Millipore, USA & Canada) and ran based on the manufacturer's protocol. Briefly, deparaffinized and rehydrated sections were pretreated with 20 µg/mL proteinase K for 15 min and incubated with terminal transferase and digoxigenin dUTP at 37°C for 1 h. After washing, sections were incubated with antidigoxigenin rhodamine (Millipore) and DAPI (Invitrogen), and slides were visualized by fluorescent microscopy (Axiophot 381). The apoptotic cells were calculated as percentage of positive cells over total number of cells counted in microscope at 400× magnification.

[4] = system: DMBA-induced NIH3T3 cells; test: Foci formation assay in DMBA-induced NIH3T3 cells; type: cell-based; settings: 100 nM peptide; 1.5 µg/ml DMBA; 6 weeks; n = 6
Experimental: The foci formation assay was performed according to Reznikoff et al. NIH3T3 cells were obtained from American Type Culture Collection (ATCC) and cultured in RPMI 1640 medium supplemented with 10% fetal bovine serum (FBS) (Invitrogen, Carlsbad, CA, USA). Cells were plated at a density of 500 cells/well in 12-well plates, incubated overnight at 37°C and treated with lunasin or BBI for 4 hrs. Then, cells were treated with 1.5 µg/ml DMBA for 20 hrs. After washing with PBS, fresh medium was added. Peptides were added and medium was changed every week for 6 weeks. At the end of experiment, cells were washed with 0.9% NaCl, fixed with methanol, stained with Giemsa, and scored for transformed foci. The negative control was a set of cells receiving no DMBA, while the positive control consisted of cells induced by DMBA but without treatment.

B1: KTI: soy Kunitz Trypsin Inhibitor, a protease inhibitor contained in soybean (protein, UniProt P01070 25-205, looked up)
Trypsin inhibitor A: DFVLDNEGNPLENGGTYYILSDITAFGGIRAAPTGNERCPLTVVQSRNELDKGIGTIISSPYRIRFIAEGHPLSLKFDSFAVIMLCVGIPTEWSVVEDLPEGPAVKIGENKDAMDGWFRLERVSDDEFNNYKLVFCPQQAEDDKCGDIGISIDHDDGTRRLVVSKNKPLVVQFQKLDKESL
[1]
  protection of lunasin from in vitro digestion with pancreatin: protect lunasin from digestion

B2: BBI: polypeptide of 71 amino acids with the ability to inhibit the serine proteases trypsin and chymotrypsin (protein, UniProt P01055 40-110, looked up)
Bowman-Birk type proteinase …: DDESSKPCCDQCACTKSNPPQCRCSDMRLNSCHSACKSCICALSYPAQCFCVDITDFCYEPCKPSEDDKEN
[2]; 20 mg/kg body weight i.p. three times a week, seven weeks post-cells injection, n = 8
  tumor incidence (mice showing tumors): 88%
[2]; 20 mg/kg body weight i.p., seven weeks post-cells injection
  tumor incidence lower compared with the control: no effect
[2]; 20 mg/kg body weight i.p., versus vehicle-treated group
  tumor generation: ineffective
[2]; i.p. three times a week, BBI 20 mg/kg, lunasin 20 and 4 mg/kg body weight, compared among the four groups, n = 8
  body weight: No significant differences
[3]
  reduction of Ki-67 expression compared with the control group: no significant difference
MDA-MB-231 tumors
  TUNEL-positive apoptotic cells in tumors: Few TUNEL-positive cells
[4]
  reduction of foci formation: 60%
[1]
  protection of lunasin from in vitro digestion with pancreatin: protect lunasin from digestion

From publication PMC2811193, “Complementary Roles in Cancer Prevention: Protease Inhibitor Makes the Cancer Preventive Peptide Lunasin Bioavailable” (PLoS ONE, 2010)
